Test results reported in patent US20230071765A1, “COMPOSITIONS HAVING THIOREDOXIN ACTIVITY AND RELATED METHODS” (ORPRO THERAPEUTICS, INC., priority 2020, published 2023).
Positions count from the first letter of the chain named.

How the values were obtained:
[1] = test system: pediatric patients; details: human, in vivo; cited from earlier work
[2] = test system: CF patient sputum on wild type rat trachea; assay: CF sputum transport ex vivo on excised rat trachea (μOCT); parameters: species or system human sputum; details: sputum treated 2 hrs; ORP100S 3 mM, DTT 1.6 mM, DNase 10 or 25 μg/ml; PBS 0.97±0.17
Procedure: To determine the effect of ORP100S on CF sputum transportability, sputum specimens spontaneously expectorated from 4 CF patients hospitalized for pulmonary exacerbation were collected and stored at 4° C. before being divided into 200 μL aliquots and treated with ORP100S (3 mM), PBS, DTT (1.6 mM), or DNase (10 or 25 μg/ml) on the day of or day following collection. Upon treatment, sputum aliquots were placed in a 37° C. water bath for 2 hrs and then applied (3 μl per sample) for μOCT imaging to the distal end of trachea excised from adult non-CF rats. Trachea were washed 2× with 500 μl of PBS before sputum addition. Sample conditions were applied in triplicate in random order at distinct anatomic locations—2 washes using 500 μl of PBS were performed between each sample addition—and at least 3 images were collected from each region of interest. Confirmation of trachea viability was obtained by imaging with PBS upon completion of the experiment.
One-micron resolution spectral domain μOCT was used to obtain measurements of mucociliary transport (MCT) rate and ciliary beat frequency (CBF) in HBE monolayers and of MCT rate of sputum ex vivo. This first-in-kind, high-speed (40 frames per second, 512 lines per frame) microscopic reflectance imaging modality enables simultaneous anatomic imaging in cell cultures and intact tissues that readily distinguishes the properties of CF compared to normal epithelia (Liu L, Chu K K, Houser G H, Diephuis B J, Li Y, Wilsterman E J, Shastry S, Dierksen G, Birket S E, Mazur M, et al., 2013, Method for quantitative study of airway functional microanatomy using micro-optical coherence tomography, PLoS One 8(1):e54473; Tuggle K L, Birket S E, Cui X, Hong J, Warren J, Reid L, Chambers A, Ji D, Gamber K, Chu K K, et al., 2014, Characterization of defects in ion transport and tissue development in Cystic Fibrosis Transmembrane Conductance Regulator (CFTR)-knockout rats. PLoS One 9(3):e91253). In addition to MCT rate and CBF, μOCT also has the capability to assess physical characteristics of the airway surface liquid. Images were captured, and MCT rate and CBF calculated, as described in the preceding references.
The effect of ORP100S on mucus clearance using intact rat trachea, which include the complexities of the airway surface such as gland expression of a fully differentiated mucosal surface, was further evaluated. […] MCT was measured by projecting a cross-sectional line through the mucus through time, with the slope of the particle trajectories indicating velocity. […]

[3] = test system: rats; details: rat, in vivo; cited from earlier work
[4] = lyophilized from 9% sucrose, 1.7 mM EDTA, pH 5.2; 40° C. for six months; cited from earlier work
[5] = test system: IL-6 and TNF-alpha in HBE-ALI from healthy and CF donors; assay: inflammatory cytokine release in HBE-ALI cultures (ELISA); type: cell-based, human; details: for effect on the inflammatory effect of saline: CF HBE-ALI
Procedure: Nasal airway epithelial cells from normal healthy volunteers or CF subjects were cultured in serum-free media at an air-liquid interface with mucociliary differentiation, based on methods adapted from the approach of Schlegel and colleagues (Suprynowicz, F. A., et al., Proc Natl Acad Sci USA, 2012, 109(49): p. 20035-40; Becker, M. N., et al., Am J Respir Crit Care Med, 2004, 169(5): p. 645-53). A number of unique CF and healthy control specimens were collected, expanded, and cryopreserved using this technique. 30 wells were cultured to differentiation at ALI for over 30 days from each of three unique normal or CF donors (homozygous for F508del). Triplicate cultures were exposed at the apical surface to PBS, native Trx, or ORP-100 and both apical and basolateral media samples were collected at 4 and 24 hours after challenge. Apical collection occurred by placing 200 uL of sterile PBS on the apical surface and recovering this after 15 min incubation. ELISA for IL-6 was performed for each sample in duplicate and others were measured using a multiplexed assay. Media was centrifuged to remove debris and stored at −80 C until ELISA analysis.
FIG. 8: Levels of IL-6 or TNFα induced after 24 hr in the basolateral ALI media of primary HBE cultures from nasal epithelia of non-CF (left series of bars) and CF donors (right series of bars). Delivery: apical-surface bolus application for 15 min of 200 uL volumes of control or test article solutions. PBS: 0.9% phosphate-buffered saline negative vehicle control (black bars); ORP100-1000: 1 mM ORP-100 in PBS (solid dark bars); […] uM ORP-100 in PBS (solid light bars); Trx-1000: 1 mM native thioredoxin-1 in PBS (dark hatched bars); Trx-100: 100 uM native thioredoxin-1 in PBS (light hatched bars). All concentrations reflect volumes delivered to the HBE apical surface.

[6] = stability analysis, lyophilized vs solution (DTNB and SEC-HPLC); type: physicochemical; details: lyophilized form, six months at 40° C.
Procedure: Prior work, e.g. WO 2006/090127, teaches compositions for maintenance of thioredoxin in the reduced state. Significant experimentation was required to derive compositions able to keep thioredoxin reduced during storage, and these compositions were complex and required saccharide derivatives and EDTA as excipients. […] ORP-100 and ORP100S proteins were reduced with 100 mM DTT and exchanged over a NAP-5 column into volatile 20 mM ammonium acetate buffer at pH 5.5 to remove residual reductant. Half of the material was frozen at −80° C. then lyophilized while the remainder was kept in solution at either 5° C. or 40° C. for various time points (“PH5.5”). Lyophilized protein was reconstituted back into 20 mM ammonium acetate pH 5.5 immediately prior to evaluation at each time point (“Lyophilized”). Stability was assessed by measuring both free SH groups (DTNB chromogenic assay) and the percent monomers (SEC-HPLC).
For FIG. 3: PH5.5: ORP-100 or ORP100S protein maintained in liquid formulation of 20 mM ammonium acetate, pH 5.5 for 0, 3, 7, 14, 21, 28, 90, or 180 days. Lyophilized: ORP-100 or ORP100S protein stored in the lyophilized form at 5° C. or 40° C. for the 0, 3, 7, 14, 21, 28, 90, or 180 days and assayed following reconstitution in 20 mM ammonium acetate, pH 5.5. Percent free sulfhydryl (reduction state) at 5° C. Second panel: Percent monomer determined by SEC assay at 5° C. Third panel: Percent free sulfhydryl at 40° C. Fourth panel: Percent monomer determined by SEC assay at 40° C.

[7] = test system: Sprague-Dawley rats; assay: nebulized aerosol inhalation in rats, inflammatory potential and toxicity; type: in vivo, rat; details: for neutrophil influx (sucrose/EDTA formulation effect): nebulized aerosol; for adverse test article effects (clinical observations, BALF chemistry, cell count, differential, lung cytokines, macroscopic and microscopic findings): target delivered doses 10 mg/kg and 40 mg/kg, aerosol, 1, 4 or 20 hours post exposure
Procedure: This example evaluated and compared the in vivo inflammatory potential among three forms of C35S monothiol Trx (oxidized ORP-100, reduced ORP-100, and reduced ORP100S) formulated in the sucrose/EDTA formulation composition described in PCT WO 2006/090127 and delivered to normal rats as nebulized aerosols at doses of […] and 40 mg/kg.
All three forms of ORP-100 were lyophilized following reduction with DTT and formulated in sucrose buffer (9% sucrose 1.17 mM EDTA pH 5.2). All test articles were evaluated at low (10 mg/kg) and high (40 mg/kg) target delivered doses. The test articles were administered to Charles River Sprague-Dawley rats via inhalation as an aerosol. The aerosol of each of the test articles was produced by a commercially available vibrating mesh nebulizer whose output was attached to a nose-only exposure system.
Target doses were achieved via modulation of the aerosol exposure time while maintaining the aerosol concentration constant. Animals in Low Dose groups received a single dose of test article during a 20 minute exposure to achieve a target delivered dose of 10 mg/kg and deposited dose of 1 mg/kg. Animals in High Dose groups received a single dose of test article during a 75 minute exposure to achieve a target delivered dose of 40 mg/kg and target deposited dose of 4 mg/kg.
Animals in each study group were evaluated for potential toxicity by measuring various parameters including: clinical signs, body weight, clinical pathology (BALF cell counts, LDH and albumin measurements), lung tissue cytokines, lung weights, gross pathology, and microscopic pathology of respiratory target tissues. Additionally, three animals in each Low Dose group had lung tissues collected for immunohistochemistry (Alizèe Pathology, Thurmont, M D). Three (3) animals in each Low Dose group were to be euthanized at 1 hour and 4 hours post exposure for blood and tissue collections. Four (4) animals in each High Dose group were euthanized at 4 and 20 hours post exposure for blood and tissue collections.

[8] = thiol pKa (acid-dissociation constant); type: physicochemical; details: verified experimentally, data not shown
Description: The human CF airway surface liquid is approximately 0.8 pH units more acidic than that of unaffected individuals due to the loss of bicarbonate-mediated buffering of proton secretion (Garland A L, Walton W G, Coakley R D, et al., 2013, Molecular basis for pH-dependent mucosal dehydration in cystic fibrosis airways. PNAS 110:15973-8; Shah V S, Meyerholz D K, Tang X X, et al., 2016, Airway acidification initiates host defense abnormalities in cystic fibrosis mice, Science 351:503-7). This has consequences for the clinical use of reducing agents to treat condensed, abnormal mucus. […] Cys thiol pKa values range from pH 8.5 (cysteamine) to pH 9.5 (NAC). In marked contrast to these classical thiols, the structurally-stabilized pKa of the Trx active site Cys32 is two to three logs lower (pH 6.1-6.3), allowing high activity even at acidic CF airway pH (FIG. 2).

B1: DNase: recombinant human DNase I (protein, UniProt P24855 23-282, looked up)
Deoxyribonuclease-1: LKIAAFNIQTFGETKMSNATLVSYIVQILSRYDIALVQEVRDSHLTAVGKLLDNLNQDAPDTYHYVVSEPLGRNSYKERYLFVYRPDQVSAVDSYYYDDGCEPCGNDTFNREPAIVRFFSRFTEVREFAIVPLHAAPGDAVAEIDALYDVYLDVQEKWGLEDVMLMGDFNAGCSYVRPSQWSSIRLWTSPTFQWLIPDSADTTATPTHCAYDRIVVAGMLLRGAVVPDSALPFNFQAAYGLSDQLAQAISDHYPVEVMLK
- pediatric patients with clinical deterioration in lung function [1]: 6-30%
- MCT rate of treated sputum [2]: 2.30±0.28 mm/min

B2: thioredoxin: native human thioredoxin-1, 12 kDa redox protein with Cys-Gly-Pro-Cys active site (protein)
chain: VKQIESKTAFQEALDAAGDKLVVVDFSATWCGPCKMIKPFFHSLSEKYSNVIFLEVDVDDCQDVASECEVKCMPTFQFFKKGQKVGEFSGANKEKLEATINELV
- neutrophil influx and inflammatory cytokine release [3]: high levels of neutrophil influx and inflammatory cytokine release
- retention of starting activity [4]: almost complete retention of starting activity

B3: oxidized thioredoxin: oxidized thioredoxin inactive protein control of Rancourt et al. 2007 (protein, UniProt P10599 2-105, looked up)
Thioredoxin: B2 chain
modifications: oxidized
- BALF cell count and cytokine results [3]: identical BALF cell count and cytokine results as normal saline alone

B4: ORP-100: thioredoxin protein having a monothiol active site in which the cysteine at position 35 has been replaced with serine (protein, UniProt P10599 2-105, looked up, variant C35S)
Thioredoxin: B2 chain with C34S
- effect on the inflammatory effect of saline [5]: abrogated the inflammatory effect of saline
- anti-inflammatory effect vs. PBS vehicle alone ([5]; concentrations above 100 uM, in normal (isotonic) PBS): significant anti-inflammatory effect
- induction of IL-6 and TNF-alpha ([5]; reduced form, in PBS, apical application): non-inflammatory
- storage stability (free SH, percent monomer) [6]: excellent storage stability
- differences in BALF LDH, albumin, cell counts, differential counts and lung tissue cytokines vs. oxidized ORP-100 control groups ([7]; low and high dose aerosol): unremarkable
- neutrophil influx (sucrose/EDTA formulation effect) [7]: partially able to mitigate the formulation effect
- adverse test article effects (clinical observations, BALF chemistry, cell count, differential, lung cytokines, macroscopic and microscopic findings) [7]: no evidence of adverse test article effects
- pKa compared to native Trx [8]: same pKa as native Trx

B5: oxidized ORP-100: oxidized form of ORP-100, control lacking thioredoxin activity (protein, UniProt P10599 2-105, looked up, variant C35S)
Thioredoxin: B2 chain with C34S
modifications: oxidized
- effect on the inflammatory effect of saline [5]: not
- neutrophil influx (sucrose/EDTA formulation effect) [7]: induced
- adverse test article effects (clinical observations, BALF chemistry, cell count, differential, lung cytokines, macroscopic and microscopic findings) [7]: no evidence of adverse test article effects
